According to IntAct's records for PubMed 18776901:

B1: Non-catalytic caspase homolog csp-3 (Caenorhabditis elegans), G5ECW5 (parent)
chain: MFFGKLGGFAFFLQRAVRCDGFIDNFFDRIPKFFQFMKSKFPSHQTSSSQADLLVSFSTSPGFLSFKDETKDTWYIQELYRVIIENAKDTHLADLLTETNRRVVEKYEADKVVFVCKQAPEFWSRFTKQLFFMSRNDVF
partner: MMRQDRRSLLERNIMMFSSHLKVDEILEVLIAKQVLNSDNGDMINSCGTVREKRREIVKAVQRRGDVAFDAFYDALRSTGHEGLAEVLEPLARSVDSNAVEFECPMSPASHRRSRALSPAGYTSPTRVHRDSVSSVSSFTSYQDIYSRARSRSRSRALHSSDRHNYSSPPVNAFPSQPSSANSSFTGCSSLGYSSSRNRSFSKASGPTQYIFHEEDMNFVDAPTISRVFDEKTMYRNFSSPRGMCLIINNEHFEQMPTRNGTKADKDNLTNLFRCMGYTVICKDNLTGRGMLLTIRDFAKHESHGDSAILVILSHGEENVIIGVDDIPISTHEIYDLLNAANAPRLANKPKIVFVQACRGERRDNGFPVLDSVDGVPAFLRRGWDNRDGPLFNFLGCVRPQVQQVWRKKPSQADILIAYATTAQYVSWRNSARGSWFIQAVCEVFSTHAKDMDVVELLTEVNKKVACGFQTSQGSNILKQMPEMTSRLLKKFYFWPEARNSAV

Variants of: B1
Conditions: with ced3_caeel ced-3, P42573

| Variant | effect of a mutation on the interaction |
| --- | --- |
| F57D | decreasing interaction |

Variants of: B1
Conditions: with ced3_caeel ced-3, P42573
Remark: another data set of the same source

| Variant | effect of a mutation on the interaction |
| --- | --- |
| F57D | decreasing interaction strength |
